B1: TPR t1 (parent)
chain: GACCAAUCUGCCCUCAGAGCUCGAGAACAUCUUCGGAUGCAGAGGAGGCAGGCUUCGGUGGCGCGAUAGCGCCAACGUCCUCAACCUCCAAUGCAUCCCACCACAUGAUGAUGCCUGAAGAGCCUUGGUUUUUUG

Variants of: B1
Experiment: polymerase ribozyme fitness, log enrichment relative to wild type (log ratio); higher = more active; in vitro selection for triplet polymerase activity
Procedure, shortened: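 Mutant libraries were PCR-built and transcribed for each subunit of a heterodimeric triplet polymerase ribozyme and selected for one round in triplicate at −7 °C, frozen, before gel excision of extended constructs and streptavidin-bead capture. Input and output libraries were Illumina-sequenced, keeping genotypes with ≥10 input reads and ≥1 read per output. Fitness is a logarithmic ratio of genotype to wild-type enrichment, in base 2, using inverse-variance-weighted replicate averages.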

For GACCAAUCUGCCCUCAGAGCUCGAGAACAUCUUCGGAUGCUGUGGAGGCAGGCUUCGGUGGCGCGAUAGCGGCAACCUCCUCAACCUCCAAUACAUCCCACCACAUGAUGAUGCCUGAAGAGCGUUGGUUAUUUG [A41U A43U C72G G77C G93A C124G U131A], which “polymerase ribozyme fitness (log ratio)” value is on record?
The value was -0.181.

With GACCAAUCUGCCCUCAGAGCUCGAGAACAUCUUCGGAUGCUGGGGAGACAGGCUUCGGUGGCACGAUAGCGCCAACGUCCUCAACCUCCGAUGCAUCCCACCAUAUGAUGAUGCCUGAAUAGCCUUGGUUUUUUG [A41U A43G G48A G63A A90G C104U G120U] as the variant, how does the “polymerase ribozyme fitness (log ratio)” value read?
The value was -4.4.

For GACCAAUCUGCCCUCAGAGCUCGAGAACAUCUUCGGAUGCGGAGGAGGCAGGCUUCGGUGACGCGAUAGCGCCAACGUCCUCAACCUCCAAUGCAUCCCAUCACAUGAUGAUGCCUGAAGAGCCUUGGUUUUGUG [A41G G61A C101U U133G], which “polymerase ribozyme fitness (log ratio)” value is on record?
The value was -1.01.

For GACCAAUCUGCCCUCAGAGCUCGAGAACAUCUUCGGAUGCGGAGGAGGCAGGCUUCGGUGACGCGAUAGCGCCAACGUCCUCAACCUCCAAUGCAUCCCACCACAUGAUGAUGCCUGAAGAGCCUUGGUUUUUUG [A41G G61A], which “polymerase ribozyme fitness (log ratio)” value is on record?
Its value is -0.141.

With GACCAAUCUGCCCUCAGAGCUCGAGAACAUCUUCGGAUGCGGAGGAGGCAGGCUUCGGUGGCGCGAUAGCGCCAACGUCCUCAACCUCCAAUGCAUCCUACCACAUGAUGAUGCCUGAAGAGCAUUGGUUUUUUG [A41G C99U C124A] as the variant, how does the “polymerase ribozyme fitness (log ratio)” value read?
Its value is -2.72.

For GACCAAUCUGCCCUCAGAGCUCGAGAACAUCUUCGGAUGCUGAGGAGGCAGGCUUCGGUGGCGCGGUAGCCCCAACGACCUCAACCUCCAAUGCAUCCCACCACAUGAUGAUGCCUGAAGAGCCUUGGUUUUUUG [A41U A66G G71C U78A], which “polymerase ribozyme fitness (log ratio)” value is on record?
The value was -5.05.

Which “polymerase ribozyme fitness (log ratio)” value does the source give for GACCAAUCUGCCCUCAGAGCUCGAGAACAUCUUCGGAUGCGGAGGAGGCAGGCUUCAGUGGCGCGAUAGCGCCAACGUCCUCAACCUCCAAUGCAUCCCACCACACGAUGAUGCCUGAAGAGCCUUGGUUUUUUG [A41G G57A U106C] here?
Its value is -1.93.

With GACCAAUCUGCCCUCAGAGCUCGAGAACAUCUUCGGAUGCGGAGGAGGCAGCCUUCGUUGGAGCGAUAGCGCCAACGCCCUCAACCUCCAAUGCAUCCCACCACAUGAUGCUGCCUGAAGAGCCUUAGUUUUUUG [A41G G52C G58U C62A U78C A111C G127A] as the variant, how does the “polymerase ribozyme fitness (log ratio)” value read?
The value was -4.32.

Which “polymerase ribozyme fitness (log ratio)” value does the source give for GACCAAUCUGCCCUCAGAGCUCGAGAACAUCUUCGGAUGCGGAGUAGGCAGGCUUGGGUGGCGCGAUAGCGCCAACGUCCUCAACCUCCAAUGCAUCCCACCACAUGAUGAUGCCUGAAGAGCAUUGGUUUUUUG [A41G G45U C56G C124A] here?
The value was -0.22.

For GACCAAUCUGCCCUCAGAGCUCGAGAACAUCUUCGGAUGCGGAGGAGGCAGGCUUCGGUGGCGCGAUAGCGCCAACGUCCUCAACCUCCAAUGCAUCCCACCACAUGAUGACGCCUGAAGAGCCUUGGUUUUUUG [A41G U112C], which “polymerase ribozyme fitness (log ratio)” value is on record?
Its value is 0.756.

With GACCAAUCUGCCCUCAGAGCUCGAGAACAUCUUCGGAUGCGGAGGAGGCAGGCUUCGGUGGCGCGAUAACGCCAACGUCCUCAAACUCCAAUGCAUCCCACCACAUGAUGAUGCCUGAAGAGCCUUGGUUUUUUG [A41G G69A C85A] as the variant, how does the “polymerase ribozyme fitness (log ratio)” value read?
Its value is -5.81.

Which “polymerase ribozyme fitness (log ratio)” value does the source give for GACCAAUCUGCCCUCAGAGCUCGAGAACAUCUUCGGAUGCGGAGGAGGCAGGCUUCGGUGGCGCGAUAGCGCUAACGUCCUCAACCUCCAAUGCAUCCCACCACAUGAUGAUGCCUGAAGAGCCCUGGUUUUUUG [A41G C73U U125C] here?
Its value is -2.74.

Which “polymerase ribozyme fitness (log ratio)” value does the source give for GACCAAUCUGCCCUCAGAGCUCGAGAACAUCUUCGGAUGCGGAAGAGGCAGGCUUCGGUGGCGCGAUAGCGCCAACGUCCUCAACCUCCAAUGCAUCCCACCACAUGAUGAUGCCUGAAGAGUCUUGGUUUUUUG [A41G G44A C123U] here?
Its value is 0.224.

Which “polymerase ribozyme fitness (log ratio)” value does the source give for GACCAAUCUGCCCUCAGAGCUCGAGAACAUCUUCGGAUGCUGAGGAGGCAGGCUUCGGUGGCGCGGUAGCGCCAACGUCCUCAACCUCCAAAGCAUCCCACCACAUGAUGAUGCCUGAAGAGCCUUGGUUUUUUG [A41U A66G U92A] here?
Its value is -2.28.

Which “polymerase ribozyme fitness (log ratio)” value does the source give for GACCAAUCUGCCCUCAGAGCUCGAGAACAUCUUCGGAUGCGGAGGAGGCAGGCUUCGGUGUCGCGAUAGCGCCAACGUCCUCAACCUCCAAUGUAUCCCACCACAUGAUGAUGCCUGAAGAGCCUUGGUUUUUUG [A41G G61U C94U] here?
The value was -0.449.

Which “polymerase ribozyme fitness (log ratio)” value does the source give for GACCAAUCUGCCCUCAGAGCUCGAGAACAUCUUCGGAUGCGGAGGAGGCAGGCUUCGGUGGCGCGAUAGCGCCAACGUCCACAACCUCCAAUGCAUCCCACCACAUGAUGAUGCCUGAAGAGCCUUGGUUUUUUG [A41G U81A] here?
The value was -1.07.

With GACCAAUCUGCCCUCAGAGCUCGAGAACAUCUUCGGAUGCGGAGAAGGCCGGCUUCGGUGGCGCGAUAGCGCCAACGUCCUCAACCUCCAAUGCAUCCCACCACAUGAUGAUGCCUGAAGAGUCUUGGUUUUUUG [A41G G45A A50C C123U] as the variant, how does the “polymerase ribozyme fitness (log ratio)” value read?
Its value is -0.694.

Which “polymerase ribozyme fitness (log ratio)” value does the source give for GACCAAUCUGCCCUCAGAGCUCGAGAACAUCUUCGGAUGCGGAGGAGGCAGGCUUCGGUGGCGCGAUAGCGCAAACGUCCUAAACCUCCAAUGCAUCCCACCACAUGAUGAUGCAUGAAGAGCCUUGGUUUUUUU [A41G C73A C82A C115A G135U] here?
The value was -2.65.

With GACCAAUCUGCCCUCAGAGCUCGAGAACAUCUUCGGAUGCGGAGGAGGCAGGCUUCGGUGGCGCGAUAGCGCCAACGUCCUCAACCUCCAAUGCAUCCCACCACAAGAUGAUGCCUGAAGAGCCUUGGUUUUUUG [A41G U106A] as the variant, how does the “polymerase ribozyme fitness (log ratio)” value read?
Its value is -0.451.

Which “polymerase ribozyme fitness (log ratio)” value does the source give for GACCAAUCUGCCCUCAGAGCUCGAGAACAUCUUCGGAUGCGGAGGAGGCAGGCAUCGGUGCCGCGAUAGCGCCAACGUCCUCAACCUCCAAUGCAUCCCACCACAUGAUGAUGCCUGAAGAGCCUUGGUUUUUUG [A41G U54A G61C] here?
The value was -2.03.

Which “polymerase ribozyme fitness (log ratio)” value does the source give for GACCAAUCUGCCCUCAGAGCUCGAGAACAUCUUCGGAUGCGGAGGAGGCAGGCUUCGGUGGCGCGAUAGCGCCAACGUCCUCAACCUCCAAUGCAUCCAACCACAUGAUGAUGCCUGAGGAGCCAUGGUUUUUUG [A41G C99A A119G U125A] here?
Its value is -6.99.

Source: the RNAGym collection of RNA variant scans (doi:10.1073/pnas.2313332121)
